Article PMC11992055, “Identification of RING E3 pseudoligases in the TRIM protein family” (Nature Communications, 2025)

B1: TRIM22 RING domain (residues 1-87), wild type (domain or fragment, human, UniProt Q8IYM9 1-87, looked up)
chain: MDFSVKVDIEKEVTCPICLELLTEPLSLDCGHSFCQACITAKIKESVIISRGESSCPVCQTRFQPGNLRPNRHLANIVERVKEVKMS
notes: TRIM22, human, RING domain, residues 1-87; Monomer-dimer equilibrium by SEC-MALLS; The His6 tag is HRV 3C cleavable; also called TRIM22 RING WT; source: E. coli BL21, purified (Ni-NTA, size-exclusion chromatography)
B2: TRIM6 RING domain (residues 1-87), wild type (domain or fragment, human, UniProt Q9C030 1-87, looked up)
chain: MTSPVLVDIREEVTCPICLELLTEPLSIDCGHSFCQACITPNGRESVIGQEGERSCPVCQTSYQPGNLRPNRHLANIVRRLREVVLG
notes: TRIM6, human, RING domain, residues 1-87; Forms dimers in solution by SEC-MALLS; The His6 tag is HRV 3C cleavable; also called TRIM6 RING WT; source: E. coli BL21, purified (Ni-NTA, size-exclusion chromatography)

Biological target: the molecule itself
Test: SEC-MALS; SEC-MALLS; Superdex 200 Increase 10/300; 120 µl sample at 1–6 mg/ml; 50 mM HEPES pH 7.5, 150 mM NaCl, 0.5 mM TCEP, 3 mM NaN3; 0.5 ml/min

Protein | stoichiometry N
B1 | 2
B2 | 2
